Reference: IntAct's records for PubMed 25686249

How the values were obtained:
[1] = molecular target: pdc6i_human PDCD6IP (UniProt Q8WUM4)
[2] = molecular target: atg12_mouse Atg12 (UniProt Q9CQY1)
atg12_mouse Atg12, sequence (Q9CQY1 whole entry): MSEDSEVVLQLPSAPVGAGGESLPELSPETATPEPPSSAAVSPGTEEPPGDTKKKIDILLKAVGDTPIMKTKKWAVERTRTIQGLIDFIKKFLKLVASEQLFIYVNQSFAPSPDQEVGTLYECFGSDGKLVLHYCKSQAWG

Ubiquitin-like-conjugating enzyme ATG3 (Mus musculus), Q9CPX6 K243R, sequence (Q9CPX6 whole entry K243R): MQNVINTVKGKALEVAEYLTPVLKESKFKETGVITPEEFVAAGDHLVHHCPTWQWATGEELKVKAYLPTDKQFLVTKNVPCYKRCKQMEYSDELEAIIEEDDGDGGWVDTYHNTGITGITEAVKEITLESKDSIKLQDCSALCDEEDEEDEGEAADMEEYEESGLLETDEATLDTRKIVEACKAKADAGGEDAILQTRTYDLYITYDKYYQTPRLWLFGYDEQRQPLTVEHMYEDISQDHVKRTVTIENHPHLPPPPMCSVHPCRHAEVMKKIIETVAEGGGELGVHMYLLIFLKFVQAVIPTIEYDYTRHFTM
pdc6i_human PDCD6IP, sequence (Q8WUM4 whole entry): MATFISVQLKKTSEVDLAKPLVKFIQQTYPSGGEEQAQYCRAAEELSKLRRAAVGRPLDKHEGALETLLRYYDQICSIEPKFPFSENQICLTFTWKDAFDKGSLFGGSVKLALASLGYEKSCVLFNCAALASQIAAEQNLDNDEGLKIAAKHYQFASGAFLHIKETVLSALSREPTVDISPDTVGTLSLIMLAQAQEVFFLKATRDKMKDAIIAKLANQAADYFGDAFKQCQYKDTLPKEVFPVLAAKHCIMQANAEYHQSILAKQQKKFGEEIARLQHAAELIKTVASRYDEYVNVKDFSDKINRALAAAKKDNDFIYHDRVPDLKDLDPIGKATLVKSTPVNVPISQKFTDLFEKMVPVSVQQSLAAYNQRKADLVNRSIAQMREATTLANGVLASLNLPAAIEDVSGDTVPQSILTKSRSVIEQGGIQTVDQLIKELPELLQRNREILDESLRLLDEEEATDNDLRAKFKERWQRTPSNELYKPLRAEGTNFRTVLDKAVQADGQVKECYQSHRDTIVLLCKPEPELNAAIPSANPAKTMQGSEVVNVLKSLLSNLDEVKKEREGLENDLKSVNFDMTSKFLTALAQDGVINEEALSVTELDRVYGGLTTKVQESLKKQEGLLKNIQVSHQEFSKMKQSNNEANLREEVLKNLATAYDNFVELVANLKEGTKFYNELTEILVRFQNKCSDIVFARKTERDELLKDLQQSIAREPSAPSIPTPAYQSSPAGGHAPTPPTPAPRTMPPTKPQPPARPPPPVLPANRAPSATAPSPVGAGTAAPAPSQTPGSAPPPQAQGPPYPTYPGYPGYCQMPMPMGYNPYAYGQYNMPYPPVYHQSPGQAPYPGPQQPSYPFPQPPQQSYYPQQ

Substance: Ubiquitin-like-conjugating enzyme ATG3 (Mus musculus), Q9CPX6 K243R
- effect of a mutation on the interaction [1]: disrupting interaction strength
- effect of a mutation on the interaction [2]: disrupting interaction strength
